# Laboratory results taken from paper PMC9283966.
# How the values were obtained:
# Conditions in all cases: glycan lost
# [1] = chromogenic anti-FXa assay, recombinant protein
# [2] = Western blot of conditioned medium
# [3] = Western blot of thrombin-antithrombin complexes
# [4] = control: wild type (Ser169 background)
# [5] = control: β antithrombin (Ala169)
substance,measurement,setting,value
antithrombin: p.Asn224His,"other: protease inhibitory activity, other: anti-FXa activity",[1]; [4],"no change, 1.38 vs 1.39"
same,expression_or_secretion,[2]; [4],decreases
same,other: protease inhibitory activity,[3]; [4],no change
antithrombin: His224 in β background,"other: protease inhibitory activity, other: anti-FXa activity",[1]; [5],abolishes
same,expression_or_secretion,[2]; [5],decreases
same,other: protease inhibitory activity,[3]; [5],abolishes
